The target in assay [1] is obsl1_human OBSL1 (UniProt O75147).
Assay [2] deals with obscn_human OBSCN (UniProt Q5VST9).
The target of assay [3] is obsl1_human OBSL1 (UniProt O75147). The source holds these as a separate data set.
The target is the same in assay [4]. This is another data set of the same source.
For assay [5], the target named is obscn_human OBSCN (UniProt Q5VST9). The source holds these as a separate data set.
In assay [6] the target is obsl1_human OBSL1 (UniProt O75147). The source holds these as a separate data set.
Assay [7] has as its target obscn_human OBSCN (UniProt Q5VST9). This is another data set of the same source.
The target is the same in assay [8]. The source holds these as a separate data set.

Chain of obsl1_human OBSL1 (O75147 whole entry): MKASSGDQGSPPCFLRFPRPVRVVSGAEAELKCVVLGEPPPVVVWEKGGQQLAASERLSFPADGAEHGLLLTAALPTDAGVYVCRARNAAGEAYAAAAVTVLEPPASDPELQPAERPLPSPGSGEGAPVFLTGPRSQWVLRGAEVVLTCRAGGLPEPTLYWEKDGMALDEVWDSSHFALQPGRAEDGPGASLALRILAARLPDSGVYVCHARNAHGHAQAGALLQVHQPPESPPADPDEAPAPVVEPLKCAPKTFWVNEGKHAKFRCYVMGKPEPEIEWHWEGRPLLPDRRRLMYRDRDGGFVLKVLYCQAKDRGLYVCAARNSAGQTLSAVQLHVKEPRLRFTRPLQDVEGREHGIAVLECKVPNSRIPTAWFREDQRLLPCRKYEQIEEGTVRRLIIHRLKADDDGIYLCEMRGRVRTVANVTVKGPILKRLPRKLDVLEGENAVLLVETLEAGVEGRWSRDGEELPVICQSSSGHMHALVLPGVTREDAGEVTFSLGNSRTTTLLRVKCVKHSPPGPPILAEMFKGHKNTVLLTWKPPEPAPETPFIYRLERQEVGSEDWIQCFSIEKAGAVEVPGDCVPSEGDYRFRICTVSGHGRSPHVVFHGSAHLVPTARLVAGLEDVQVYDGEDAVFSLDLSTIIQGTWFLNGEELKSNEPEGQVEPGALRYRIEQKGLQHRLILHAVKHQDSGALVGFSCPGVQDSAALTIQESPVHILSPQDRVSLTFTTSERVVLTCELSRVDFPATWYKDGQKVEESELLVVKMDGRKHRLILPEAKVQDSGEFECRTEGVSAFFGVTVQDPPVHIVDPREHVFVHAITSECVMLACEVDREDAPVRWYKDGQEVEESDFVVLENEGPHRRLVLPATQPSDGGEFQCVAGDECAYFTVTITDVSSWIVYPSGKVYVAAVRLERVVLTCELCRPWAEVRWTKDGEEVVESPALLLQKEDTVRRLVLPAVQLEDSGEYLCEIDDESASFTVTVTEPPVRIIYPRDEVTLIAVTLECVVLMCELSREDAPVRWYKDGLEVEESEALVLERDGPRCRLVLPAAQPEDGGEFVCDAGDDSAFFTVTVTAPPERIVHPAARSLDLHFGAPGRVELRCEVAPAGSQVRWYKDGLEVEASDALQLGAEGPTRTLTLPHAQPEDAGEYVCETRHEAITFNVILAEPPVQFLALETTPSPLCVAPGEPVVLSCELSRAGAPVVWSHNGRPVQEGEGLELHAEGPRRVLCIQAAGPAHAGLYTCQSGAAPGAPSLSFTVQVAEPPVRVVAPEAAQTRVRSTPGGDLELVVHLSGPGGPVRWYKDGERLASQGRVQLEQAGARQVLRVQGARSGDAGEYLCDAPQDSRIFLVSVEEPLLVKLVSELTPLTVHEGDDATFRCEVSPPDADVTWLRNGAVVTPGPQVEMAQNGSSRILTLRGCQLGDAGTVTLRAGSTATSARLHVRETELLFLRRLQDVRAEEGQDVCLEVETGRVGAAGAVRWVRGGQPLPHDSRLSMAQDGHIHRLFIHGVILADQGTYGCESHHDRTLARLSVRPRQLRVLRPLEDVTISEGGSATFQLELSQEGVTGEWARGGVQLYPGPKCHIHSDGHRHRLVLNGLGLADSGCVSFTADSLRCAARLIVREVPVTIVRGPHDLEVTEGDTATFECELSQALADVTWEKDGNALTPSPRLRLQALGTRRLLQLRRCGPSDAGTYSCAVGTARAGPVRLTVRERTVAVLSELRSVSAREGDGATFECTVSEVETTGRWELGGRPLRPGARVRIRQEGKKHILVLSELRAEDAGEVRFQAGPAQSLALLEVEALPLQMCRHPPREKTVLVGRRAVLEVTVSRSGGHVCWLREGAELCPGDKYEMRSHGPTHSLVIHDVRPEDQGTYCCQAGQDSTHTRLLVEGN

Titin (Homo sapiens), Q8WZ42 I34306N: the “effect of a mutation on the interaction” value in the assay with obsl1_human OBSL1 [1] and with obscn_human OBSCN [2] was “decreasing interaction” each time.

Take Titin (Homo sapiens), Q8WZ42 D34311S: the “effect of a mutation on the interaction” value in the assay with obsl1_human OBSL1 [3] is given as “decreasing interaction”.

For the substance Titin (Homo sapiens), Q8WZ42 H34305P, the “effect of a mutation on the interaction” value with obsl1_human OBSL1 [4] and in the assay with obscn_human OBSCN [5] was “decreasing interaction” in each case.

Turning to Titin (Homo sapiens), Q8WZ42 R34348E, the “effect of a mutation on the interaction” value is recorded as “increasing interaction” with obsl1_human OBSL1 [6] and “decreasing interaction” in the assay with obscn_human OBSCN [7].

For the substance Titin (Homo sapiens), Q8WZ42 D34311R, in the assay with obscn_human OBSCN [8], the “effect of a mutation on the interaction” value is reported as “decreasing interaction”.

For the origin of these results see IntAct's records for PubMed 20489725.
